These results are taken from US20050004011A1, “Compositions and methods for treating bacterial infections with protein-dalbavancin complexes” (priority 2002, published 2005).

The target of data set [1] is N,N′-diacetyl-Lys-D-Ala-D-Ala. Kind of data set: ITC, 25 C, asymptote of the non-competitive binding model. A general note: ITC needs no label: the signal is the heat of the interaction.
In another data set the target is human albumin (Homo sapiens, UniProt P02768). Kind of data set: Protein binding by isothermal titration microcalorimetry.
Another data set deals with human α-glycoprotein. The description is as above. The following applies: α-glycoprotein […]10^−5M.
Data set [2] concerns the target N,N′-diacetyl-Lys-D-Ala-D-Ala.
Data set [3] concerns the target N,N′-diacetyl-Lys-D-Ala-D-Ala. This is another data set of the same source.
The target of data set [4] is N,N′-diacetyl-Lys-D-Ala-D-Ala. Kind of data set: ITC, 37 C, HSA 0 µM.
Data set [5] deals with N,N′-diacetyl-Lys-D-Ala-D-Ala. Kind of data set: ITC, 10 C, no HSA, average.
Data set [6] has as its target N,N′-diacetyl-Lys-D-Ala-D-Ala. Kind of data set: ITC, 25 C, HSA 288 µM present.
Data set [7] has as its target Human α-glycoprotein (human) (UniProt P02763). Kind of data set: calculated from ITC Ka; antibiotic 1 µM, α-glycoprotein 1.5x10^-5 M assumed.
Data set [8] addresses Human serum albumin (human) (UniProt P02768). Kind of data set: calculated from ITC Ka; antibiotic 250 µM, HSA 6x10^-4 M assumed.
Data set [9] concerns the target N,N′-diacetyl-Lys-D-Ala-D-Ala. Kind of data set: ITC, 25 C, no HSA, average.
Data set [10] concerns the target Human serum albumin (human) (UniProt P02768). Kind of data set: calculated from ITC Ka; antibiotic 165 µM, HSA 6x10^-4 M assumed.
The target of data set [11] is Human α-glycoprotein (human) (UniProt P02763). Kind of data set: calculated from ITC Ka; antibiotic 250 µM, α-glycoprotein 1.5x10^-5 M assumed.
Data set [12] deals with N,N′-diacetyl-Lys-D-Ala-D-Ala. Kind of data set: ITC, 37 C, HSA 516 µM present.
For data set [13], the target named is Human α-glycoprotein (human) (UniProt P02763). Kind of data set: calculated from ITC Ka; antibiotic 100 µM, α-glycoprotein 1.5x10^-5 M assumed.
Data set [14] deals with N,N′-diacetyl-Lys-D-Ala-D-Ala. Kind of data set: ITC, 37 C, no HSA, average.
Data set [15] concerns the target Human serum albumin (human) (UniProt P02768). Kind of data set: calculated from ITC Ka; antibiotic 1 µM, HSA 6x10^-4 M assumed.
The target in data set [16] is N,N′-diacetyl-Lys-D-Ala-D-Ala. Kind of data set: ITC, 25 C, HSA 34.2 µM present.
Data set [17] has as its target N,N′-diacetyl-Lys-D-Ala-D-Ala. Kind of data set: ITC, 25 C, HSA 104 µM present.
For data set [18], the target named is Human serum albumin (human) (UniProt P02768). Kind of data set: calculated from ITC Ka; antibiotic 100 µM, HSA 6x10^-4 M assumed.
For data set [19] the target is unchanged. Kind of data set: calculated from ITC Ka; antibiotic 500 µM, HSA 6x10^-4 M assumed.
The target in data set [20] is Human α-glycoprotein (human) (UniProt P02763). Kind of data set: ITC, 37 C, single-site model.
Data set [21] addresses Dog albumin (dog) (UniProt P49822). Kind of data set: ITC, 37 C, single-site model.
In data set [22] the target is Human serum albumin (human) (UniProt P02768). Kind of data set: ITC, 37 C, single-site model.
The target of data set [23] is Rat albumin (rat) (UniProt P02770). Kind of data set: ITC, 37 C, single-site model.
Data set [24] has as its target N,N′-diacetyl-Lys-D-Ala-D-Ala. Kind of data set: ITC, preliminary experiments, no serum proteins.
The target of data set [25] is Human α-glycoprotein (human) (UniProt P02763). Kind of data set: calculated from ITC Ka; antibiotic 10 µM, α-glycoprotein 1.5x10^-5 M assumed.
Data set [26] concerns the target N,N′-diacetyl-Lys-D-Ala-D-Ala. Kind of data set: ITC, 25 C, HSA 430 µM present.
Data set [27] addresses Human α-glycoprotein (human) (UniProt P02763). Kind of data set: calculated from ITC Ka; antibiotic 500 µM, α-glycoprotein 1.5x10^-5 M assumed.
For data set [28], the target named is Human serum albumin (human) (UniProt P02768). Kind of data set: calculated from ITC Ka; antibiotic 10 µM, HSA 6x10^-4 M assumed.
Data set [29] deals with N,N′-diacetyl-Lys-D-Ala-D-Ala. Kind of data set: ITC, 10 C, HSA 0 µM.
Data set [30] deals with N,N′-diacetyl-Lys-D-Ala-D-Ala. The source holds these as a separate data set.
In data set [31] the target is N,N′-diacetyl-Lys-D-Ala-D-Ala. Kind of data set: ITC, 25 C, apparent Kdiss plateau at high HSA.
The target in data set [32] is N,N′-diacetyl-Lys-D-Ala-D-Ala. This is another data set of the same source.
Data set [33] concerns the target Human α-glycoprotein (human) (UniProt P02763). Kind of data set: calculated from ITC Ka; antibiotic 165 µM, α-glycoprotein 1.5x10^-5 M assumed.
The target is the same in data set [34]. Kind of data set: ITC, 25 C, single-site model.
The target of data set [35] is Dog albumin (dog) (UniProt P49822). Kind of data set: ITC, 25 C, single-site model.
Data set [36] concerns the target Human serum albumin (human) (UniProt P02768). Kind of data set: ITC, 25 C, single-site model.
For the next data set, the target named is Bovine albumin (bovine) (UniProt P02769). Kind of data set: ITC, 25 C, single-site model.
Data set [37] addresses Rat albumin (rat) (UniProt P02770). Kind of data set: ITC, 25 C, single-site model.
Data set [38] has as its target N,N′-diacetyl-Lys-D-Ala-D-Ala. Kind of data set: ITC, 25 C, HSA 0 µM.
Data set [39] concerns the target N,N′-diacetyl-Lys-D-Ala-D-Ala. Kind of data set: ITC, 25 C, HSA 513 µM present.

Where “and” joins values, the source holds several entries; their conditions need not be identical. Identical values can stand only once. Like-named read-outs stand apart in the source and are kept apart here.

Human α-glycoprotein (human), sequence (P02763 19-201): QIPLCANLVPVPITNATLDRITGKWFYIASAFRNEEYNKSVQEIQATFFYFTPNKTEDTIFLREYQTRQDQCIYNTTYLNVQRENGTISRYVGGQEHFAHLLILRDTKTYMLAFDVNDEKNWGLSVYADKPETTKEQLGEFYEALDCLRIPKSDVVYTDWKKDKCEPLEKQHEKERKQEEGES
Dog albumin (dog), sequence (P49822 25-608 limits assumed): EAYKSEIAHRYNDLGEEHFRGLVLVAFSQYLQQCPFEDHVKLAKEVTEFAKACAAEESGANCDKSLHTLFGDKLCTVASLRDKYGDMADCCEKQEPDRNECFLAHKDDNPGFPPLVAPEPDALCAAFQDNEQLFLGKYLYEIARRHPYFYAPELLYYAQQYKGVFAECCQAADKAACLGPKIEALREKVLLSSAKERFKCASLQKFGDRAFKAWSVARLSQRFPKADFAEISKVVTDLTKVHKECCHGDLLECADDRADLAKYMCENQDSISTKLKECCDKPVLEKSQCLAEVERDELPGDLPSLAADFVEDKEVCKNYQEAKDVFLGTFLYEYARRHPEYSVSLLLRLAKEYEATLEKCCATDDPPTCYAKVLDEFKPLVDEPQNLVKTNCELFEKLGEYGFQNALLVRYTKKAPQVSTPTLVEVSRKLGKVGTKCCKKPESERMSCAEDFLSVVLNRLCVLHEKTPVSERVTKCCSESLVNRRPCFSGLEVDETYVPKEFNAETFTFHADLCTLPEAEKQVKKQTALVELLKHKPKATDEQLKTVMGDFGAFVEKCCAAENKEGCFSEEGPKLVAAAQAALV
Rat albumin (rat), sequence (P02770 25-608 limits assumed): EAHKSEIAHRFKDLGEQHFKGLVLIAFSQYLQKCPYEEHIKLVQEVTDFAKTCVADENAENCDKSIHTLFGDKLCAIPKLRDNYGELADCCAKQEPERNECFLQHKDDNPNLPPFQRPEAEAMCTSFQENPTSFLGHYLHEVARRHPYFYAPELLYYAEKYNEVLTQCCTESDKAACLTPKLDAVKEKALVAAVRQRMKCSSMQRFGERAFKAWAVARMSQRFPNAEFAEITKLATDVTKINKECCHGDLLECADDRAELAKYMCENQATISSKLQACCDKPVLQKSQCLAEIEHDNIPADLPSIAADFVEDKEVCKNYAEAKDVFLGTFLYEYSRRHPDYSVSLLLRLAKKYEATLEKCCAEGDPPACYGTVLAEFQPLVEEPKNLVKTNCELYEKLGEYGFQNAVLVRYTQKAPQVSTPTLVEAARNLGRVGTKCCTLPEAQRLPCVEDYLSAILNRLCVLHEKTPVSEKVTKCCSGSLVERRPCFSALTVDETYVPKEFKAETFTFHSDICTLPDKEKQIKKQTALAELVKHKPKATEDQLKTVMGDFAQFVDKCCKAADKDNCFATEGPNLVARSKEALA
Bovine albumin (bovine), sequence (P02769 25-607 limits assumed): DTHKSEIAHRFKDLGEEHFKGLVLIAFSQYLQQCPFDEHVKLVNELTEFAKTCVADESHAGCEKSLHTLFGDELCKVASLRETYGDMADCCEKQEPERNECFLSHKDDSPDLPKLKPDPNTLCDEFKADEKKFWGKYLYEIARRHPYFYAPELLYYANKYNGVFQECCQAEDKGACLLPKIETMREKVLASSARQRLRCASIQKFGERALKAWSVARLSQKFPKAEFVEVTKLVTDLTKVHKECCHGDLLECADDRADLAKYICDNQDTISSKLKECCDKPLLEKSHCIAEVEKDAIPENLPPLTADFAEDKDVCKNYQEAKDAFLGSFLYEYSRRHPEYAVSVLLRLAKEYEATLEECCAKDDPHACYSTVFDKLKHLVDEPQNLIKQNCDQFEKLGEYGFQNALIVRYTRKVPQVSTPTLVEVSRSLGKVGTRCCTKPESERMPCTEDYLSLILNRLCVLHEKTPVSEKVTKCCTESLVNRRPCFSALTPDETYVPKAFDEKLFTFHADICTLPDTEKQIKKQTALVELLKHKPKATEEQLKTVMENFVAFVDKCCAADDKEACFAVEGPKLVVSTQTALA
Procedure for human albumin: Integrated heat effects, after correction for heats of dilution, were analyzed by non-linear regression using a simple single-site binding model with the standard Microcal ORIGIN software package. Raw data (μcal/sec) for each injection were integrated to give the total heat effect per addition, then divided by amount of injectant to give kcal/mole of injectant. The same integration was applied for control dilution effects, and this was subtracted from the actual titration data. This provided a differential of the binding curve in which the extent of binding is proportional to the total heat liberated (or absorbed). This was then analyzed by non-linear regression methods in terms of various standard binding models.

Turning to “dalbavancin-HSA complex (from UniProt P02768 25-609)”, the Kd in [1] was found to be 35 µM.
In the case of Teicoplanin [reference compound], the “binding stoichiometry modeling (drug:protein)” value at human albumin is reported as 1:1 binding. Besides, the Calculated percent binding on human albumin (antibiotic 100 μM, human serum albumin 6×10^−4 M) is recorded as 98.0%; in the data set on human α-glycoprotein (antibiotic 1 μM) it was 9.6%; with human α-glycoprotein (antibiotic 10 μM) it was 9.1%; in the data set with human α-glycoprotein (antibiotic 100 μM), 6.0%.
Regarding Dalbavancin (peptide), the Ka was 12500 M⁻¹ in data set [2]; 21800 M⁻¹ in [3]; 130000 M⁻¹ and 110000 M⁻¹ in data set [4]; 31000 M⁻¹ in data set [6]; 9570 M⁻¹ in data set [12]; 35000 M⁻¹ in data set [16]. Moreover, the Ka was found to be 34900 M⁻¹ in data set [17]; 480000 M⁻¹ in data set [20]; 50000 M⁻¹ with Dog albumin (dog) [21]; 133000 M⁻¹ in data set [22]; 280000 M⁻¹ with Rat albumin (rat) [23]; 28400 M⁻¹ in data set [26]. The Ka in data set [30] came out at 27600 M⁻¹; in [32], 118000 M⁻¹; in [34] it was 184000 M⁻¹; with Dog albumin (dog) [35] it was 62000 M⁻¹; in data set [36], 135000 M⁻¹; with Bovine albumin (bovine), 138000 M⁻¹. The Ka with Rat albumin (rat) [37] came to 310000 M⁻¹. Moreover, the Kd in [2] is 80 µM; in [3] it was 45.9 µM; in [4] it was 7.69 µM and 9.09 µM; in data set [5] it was 1.4 µM; in [6], 32.3 µM; in data set [9], 3.1 µM. The Kd was 105 µM in data set [12]; 8.4 µM in [14]; 28.6 µM in [16]; 28.7 µM in data set [17]; 1 to 10 µM in data set [24]; 35.2 µM in data set [26]. Further, the Kd is 36.2 µM in data set [30], 35 µM in data set [31] and 8.47 µM in [32]. The ΔH was -98.6 kcal/mol in data set [2]; -15 kcal/mol in data set [3]; -12.5 kcal/mol and -17.4 kcal/mol in data set [4]; -21.1 kcal/mol in data set [6]; -26.6 kcal/mol in [12]; -20 kcal/mol in data set [16]. The ΔH is -18.6 kcal/mol in [17]; -19.5 kcal/mol in [26]; -10.3 kcal/mol (2×) and -8.95 kcal/mol in [29]; -16.9 kcal/mol in [30]; -27.8 kcal/mol and -26.4 kcal/mol in data set [32]. The ΔS in data set [2] is -299 eu; in data set [3], -30.4 eu; in data set [4], -16.8 eu and -33.2 eu; in data set [6] it was -50 eu; in data set [12] it was -67.6 eu; in data set [16], -46.2 eu. Further, the ΔS in data set [17] was -41.7 eu; in [26], -44.9 eu; in data set [29] it was -9.6 eu and -4.3 eu and -9.9 eu; in data set [30] it was -36.5 eu; in data set [32], -70.1 eu and -65.5 eu. In addition, the calculated percent bound in data set [7] was 73%; in [8], 98.5%; in data set [10] it was 98.6%; in data set [11] it was 11.4%; in [13], 26.2%; in data set [15], 98.8%. In addition, the calculated percent bound was 98.7% in data set [18]; 98% in [19]; 68.2% in data set [25]; 5.9% in [27]; 98.8% in [28]; 16.9% in data set [33].
Consider “Vancomycin hydrochloride (Sigma V-2002, fw 1485.7) (peptide)”, for which, in data set [38], the Ka was 340000 M⁻¹ and 360000 M⁻¹; the Kd is 2.94 µM and 2.78 µM; the ΔH was -10.7 kcal/mol and -12.9 kcal/mol; the ΔS is -10.6 eu and -17.8 eu. In addition, in data set [39], the Ka worked out at 290000 M⁻¹, the Kd worked out at 3.45 µM, the ΔH was -10.1 kcal/mol and the ΔS is -8.8 eu. In [29], the Ka was determined as 690000 M⁻¹, the Kd was 1.45 µM, the ΔH is -9.49 kcal/mol and the ΔS is -6.8 eu.
In the case of Teicoplanin (peptide), the calculated percent bound is 9.6% in data set [7]; 6% in [13]; 98.3% in data set [15]; 98% in data set [18]; 9.1% in [25]; 98.3% in data set [28]. Also, the Ka in [34] stood at 7000 M⁻¹; in data set [36] it was 96000 M⁻¹.
